In the supplement of paper PMC9170038:

Test system: MS2 coat protein
Assay: apparent KD of MS2 coat protein; designed switch direction (-1 OFF switch, 1 ON switch): -1; higher = weaker reporter binding
Summary of the method: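 Designed RNA switches with common flanks were made on Illumina chips by stalled E. coli RNA polymerase. Titration with SNAP-549-labelled MS2 coat protein doubled from 0.7 or 1.5 nM up to 3 µM. Apparent KD is each design's median over clusters after curve-fitting normalised fluorescence.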

[1] = Eterna round: R95, input ligand: microRNA oligo, concentration not stated
[2] = input ligand: microRNA oligo, concentration not stated
[3] = Eterna round: R95, input ligand: FMN 200 uM
[4] = Eterna round: R95, input ligand: none

Sequence	apparent KD of MS2 coat protein [1]	apparent KD of MS2 coat protein (input ligand: FMN 200 uM)	apparent KD of MS2 coat protein (input ligand: none)	apparent KD of MS2 coat protein [2]	apparent KD of MS2 coat protein [3]	apparent KD of MS2 coat protein [4]
CAGGGUAGAGGAUAUACGUAGGUACAGAUCUGUGUGAUCCUACAUGAGGAUCACCCAUGUAGAAGGCUAGCCUG [LRO-Excl2-07] (puzzle: Exclusion 2)	305 nM					
UAUUAGCAAGUGAGAUCCCACAUGAGGAUCACCCAUGUGCUCGUCUUAUAACGUACUGUGACGAAAGUCACGGUACG [Sensor-V1 #81] (Eterna round: R97, puzzle: Sensor, turn-off variant 1)		52.9 nM	47.2 nM			
CGCGAGGGAGGAUAUGCACUCAGUGAUCACGCCCAAAUUCGACAUGAGGAUCACCCAUGUAGAAGGCCCGGCUA [EX2 B.15] (Eterna round: R97, puzzle: Exclusion 2)		21.1 nM	19 nM			
ACAUGAUCAGGAUAUACAUGAGGAUCACCCAUGUAAAUCAAAAAAAAACUUUCUUUAUGUAGAAGGGAUCUUGU [EX3 270: Random 6] (Eterna round: R96, puzzle: Exclusion 3)		15.2 nM	15.3 nM	13.6 nM		
UAAUGCAAGUAAAGAUCCUACAUGAGGAUCACCCAUGUGCUCGUCUUAUAAAGUACUAUCACGAAAGUGAUAGUACA [Mat - Sensor v3 - turn-off var 1 - Eli Mod - D83] (puzzle: Sensor v3, turn-off variant 1)	31.8 nM				385 nM	167 nM
UGUCAGAUGGUAGGAUAUCCGUAUCGCGUGUCCCUUUCCUAACAUGAGGAUCACCCAUGUCGGUGGGAGAAGGGCCGUAUGGUG [salish99_ExNG02_R04_037] (Eterna round: R96, puzzle: Exclusion NG 2)		12.9 nM	15.3 nM	10.6 nM		
AGAUGCUCAAGUCGACAUGAGGAUCACCCAUGUACAGUUAAUGAGGAUAUCCGAGAUAAAUAAUAGGAGAAGGCGUGAUCAUGA [Ex NG3 #7] (Eterna round: R96, puzzle: Exclusion NG 3)		284 nM	458 nM	383 nM		
GUGGUCCGAGGAUAUAUUAUGUGAUACAUGAGGAUCACCCAUGUUAUAUAAUGGAUGUUAGUAGAAGGCGGACUAC [Mat - Exclusion 5 - JL mod - D83] (puzzle: Exclusion 5)	56 nM				107 nM	49.1 nM
CUUUUGUGAGGAUAUUAGUAGUAAAUUAAUAAAAUUACUACUGAGAAGGCACAUGAGGAUCACCCAUGUUCCUC [salish99_ex4_r3_054] (puzzle: Exclusion 4)	39.7 nM					
CUGGUCCGAGGAUAUAUUAUGUGAUACAUGAGGAUCACCCAUGUUAUAUGAUGGAUGUUAAUAGAAGGCGGACUAG [JL-ex5-3.20] (puzzle: Exclusion 5)	109 nM				109 nM	184 nM
ACGUACUGAGGAUAUACGAACAUGUCAAAAGACGUGAAGGGACAUGAGGAUCACCCAUGUAGAAGGCAGUACGA [Mat - Exclusion 2 - JL mod - D7] (Eterna round: R96, puzzle: Exclusion 2)				32.7 nM		
AUACGUGAGAAGGAUAUCACACGCCAGAGGCGUUGAGAAGGUUUCACAUGAGGAUCACCCAUGUGCUCUUCCAG [Orlaa] (Eterna round: R97, puzzle: Exclusion 6)		61.3 nM	23.5 nM			
GUAUCGUGAGGAUAUCUAGACUGACUUAGUACAUGUCAGCUGGAGAAGGCACAUGAGGAUCACCCAUGUGAUUA (puzzle: Exclusion 4)	22.2 nM					
ACGGUUCUCCUCAGCUACAUGAGGAUCACCCAUGUGACUGAGCAGGAUAUACAUAAGUGCGAAAAGUAGAAGGGCUCGGCGCAC [Xeora] (Eterna round: R96, puzzle: Exclusion NG 3)		12.2 nM	12.7 nM	8.75 nM		
ACAAGCUUUUUGCUCGUUUACAUGAGGAUCACCCAUGUGUCUUCACGCCCGGGCCCGGGCAAGCCCGGGCCCGGGCG [-47, -77, A 16%] (Eterna round: R97, puzzle: Sensor, turn-off variant 1)		45.6 nM	45 nM			
GCAGCACAUGUAGGAUAUCUGCACGAUUAGUGCAGAGAAGGACAUGAGGAUCACCCAUGUAAUUAAGAUCAAUUAUUAAGCUGC [ENG1/3-C1] (Eterna round: R96, puzzle: Exclusion NG 1)		374 nM	46.1 nM	36.4 nM		
UUAGAUUAUUGAGGAUAUGGUUAUUUUUAUUAACCAGAAGGCAAACUCAACAUGAGGAUCACCCAUGUAUAAAGGGUAUUAGUU [JR_ExcNG1_Sub097] (Eterna round: R96, puzzle: Exclusion NG 1)				71.9 nM		

Sequence	apparent KD of MS2 coat protein [1]	apparent KD of MS2 coat protein (input ligand: FMN 200 uM)	apparent KD of MS2 coat protein (input ligand: none)	apparent KD of MS2 coat protein [2]	apparent KD of MS2 coat protein [3]	apparent KD of MS2 coat protein [4]
AUAUUACAUGAGGAUCACCCAUGUGAGGAUAUGGAGCGAGACUGUCCUGUCGCGUACACCAGAAGGCGCGGGCG [1st #53] (Eterna round: R97, puzzle: Exclusion 1)		27.5 nM	31 nM			
GGAUCGAAUGUGAGGAUAUGCUGGUCCUUGGAUCAGCAGAAGGCACAUGAGGAUCACCCAUGUGAUAUCGAUCC [Eli bmx4 4.71] (Eterna round: R97, puzzle: Brourd's mod of Exclusion 4)		443 nM	89.2 nM			
AUAUUACAUGAGGAUCACCCAUGUGAGGAUAUGGAGCGCGACCGCCCGGUCGCGUACACCAGAAGGCGCGGGCG [1st #57] (Eterna round: R97, puzzle: Exclusion 1)		46.2 nM	22.3 nM			
ACAUGAGGAUCACCCAUGUCAGGCAGGUCCACUCCGGCUGUUGAGGAUAUAGCCCGGUAUCCGCGCUAGAAGGUGAGGGCCGGC [Aenatbe mod 26] (Eterna round: R96, puzzle: Exclusion NG 3)		15.3 nM	21.6 nM	15.7 nM		
CAACCACGUGCAGGAUAUGCGAAGUGAUUCGGUGGUACCACAGCGUAAACAUGAGGAUCACCCAUGUAGAAGGGCAUGAGGGCU [Eternabot solution 16] (Eterna round: R96, puzzle: Exclusion NG 2)		352 nM	123 nM	119 nM		
CUGCUCCGUGUAGGAUAUGCAUAUUCCCAUUAUGCAGAAGGACAUGAGGAUCACCCAUGUAUGUUAUUAUCAUGUGUUGCAUGC [Design 10] (Eterna round: R96, puzzle: Exclusion NG 1)		146 nM	34.3 nM	35.2 nM		
UAAAACCUAGGAUAUACAUGAGGAUCACCCAUGUUCGAAGGAGCCCAAGUGACUUCUAGUAGAAGGAGGGCGAA [Aratisedso] (puzzle: Exclusion 3)	18.8 nM					
GCCGUCAGUGUGAGGAUAUGCCUAUGGAUACGUAGGCAGAAGGCACAUGAGGAUCACCCAUGUCCAAAGACGGC [JL-BMX4-4.30 Eli mod] (Eterna round: R97, puzzle: Brourd's mod of Exclusion 4)		520 nM	181 nM			
GUCGUGCGGCAGUGCUGUACGAGUACAUGAGGAUCACCCAUGUAGGAUAUGGUUCGUUUUGCGUGCUAGAAGGGCGUGCGUUGG [Excl-NG3-LRO21] (Eterna round: R96, puzzle: Exclusion NG 3)		19.3 nM	21.4 nM	16.3 nM		
UUUGUUUAUGUGAGGAUAUACUGUUUGUUUUGUUUGUAGAAGGUACAUGAGGAUCACCCAUGUUUUGUUUUUUU [JR_BME4_Sub033] (puzzle: Brourd's mod of Exclusion 4)	21 nM					
AAAUGUGCGAGAGGAUAUCGUGUACAAAGUACACGAGAAGGCUUCACAUGAGGAUCACCCAUGUACCGAGGUGAAACACCUUGA [Omei Exc(NG)1 Bv4] (Eterna round: R96, puzzle: Exclusion NG 1)		599 nM	198 nM	149 nM		
AGUUCACAUGAGGAUCACCCAUGUGAGGAUAUGGUUUCGCUGGCCGUAGCCAGUGGAACCAGAAGGCGCGUGAU [Mat - Exclusion 1 - JL Mod - D15] (Eterna round: R97, puzzle: Exclusion 1)		52.1 nM	51 nM			
CGACUGUGAGGAUAUGGUGAGUAGUGCCUGAGCGCUGCUCACCAGAAGGCACAUGAGGAUCACCCAUGUAUGAC [Mat - Exclusion 4 - Mod of JL - D8] (puzzle: Exclusion 4)	72.8 nM					
CUUUUGUGAGGAUAUUAGUAGUAAAUAAAUAAAAUUACUACUUAGAAGGCACAUGAGGAUCACCCAUGUUCCUC [salish99_ex4_r3_043] (Eterna round: R96, puzzle: Exclusion 4)		238 nM	29.6 nM	25.8 nM		
AAGAAACAUGAGGAUCACCCAUGUGAGGAUAUGAAAAAGAAAAUAAAAUAAAUAAGAAUCAGAAGGCACAAAGG [Mat - Mod of Hog D5] (puzzle: Exclusion 1)	45.5 nM				40.6 nM	40.2 nM
AAUUAAUAUCAGGAUAUGACGUGCUGCGGCACGUCAGAAGGGAUGACAUGAGGAUCACCCAUGUGAUCAAUUAA [E6/1-A3] (Eterna round: R97, puzzle: Exclusion 6)		114 nM	22.1 nM			
UUCCGACAUGAGGAUCACCCAUGUGAGGAUAUGUUCGAAAGCUAAGACUGCGACAGGAAUAGAAGGCGCGGGUA [Eternabot (Original) Solution 17] (Eterna round: R97, puzzle: Exclusion 1)		20.4 nM	20.4 nM			
